The values below come from patent US20050120396.

The target in this data set is GST-MKK4 fusion protein [GST: P08515].
GST-MKK4 fusion protein [GST: P08515], sequence (P08515 whole entry, looked up, the tested form may be a part): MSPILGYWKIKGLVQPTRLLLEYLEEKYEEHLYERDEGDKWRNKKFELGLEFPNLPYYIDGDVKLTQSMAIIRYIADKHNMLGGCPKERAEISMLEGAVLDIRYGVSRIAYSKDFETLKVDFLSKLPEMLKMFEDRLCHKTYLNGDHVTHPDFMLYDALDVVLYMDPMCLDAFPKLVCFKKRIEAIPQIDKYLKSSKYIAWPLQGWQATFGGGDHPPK

B1: His-tagged hMEKK1 (polyhistidine-hMEKK1 fusion) (protein)
chain: HHHHHHMENKETLKGLHKMDDRPEERMIREKLKATCMPAWKHEWLERRNRRGPVVVKPIPVKGDGSEMNHLAAESPGEVQASAASPASKGRRSPSPGNSPSGRTVKSESPGVRRKRVSPVPFQSGRITPPRRAPSPDGFSPYSPEETNRRVNKVMRARLYLLQQIGPNSFLIGGDSPDNKYRVFIGPQNCSCARGTFCIHLLFVMLRVFQLEPSDPMLWRKTLKNFEVESLFQKYHSRRSSRIKAPSRNTIQKFVSRMSNSHTLSSSSTSTSSSENSIKDEEEQMCPICLLGMLDEESLTVCEDGCRNKLHHHCMSIWAEECRRNREPLICPLCRSKWRSHDFYSHELSSPVDSPSSLRAAQQQTVQQQPLAGSRRNQESNFNLTHYGTQQIPPAYKDLAEPWIQVFGMELVGCLFSRNWNVREMALRRLSHDVSGALLLANGESTGNSGGSSGSSPSGGATSGSSQTSISGDVVEACCSVLSMVCADPVYKVYVAALKTLRAMLVYTPCHSLAERIKLQRLLQPVVDTILVKCADANSRTSQLSISTLLELCKGQAGELAVGREILKAGSIGIGGVDYVLNCILGNQTESNNWQELLGRLCLIDRLLLEFPAEFYPHIVSTDVSQAEPVEIRYKKLLSLLTFALQSIDNSHSMVGKLSRRIYLSSARMVTTVPHVFSKLLEMLSVSSSTHFTRMRRRLMAIADEVEIAEAIQLGVEDTLDGQQDSFLQASVPNNYLETTENSSPECTIHLEKTGKGLCATKLSASSEDISERLASISVGPSSSTTTTTTTTEQPKPMVQTKGRPHSQCLNSSPLSHHSQLMFPALSTPSSSTPSVPAGTATDVSKHRLQGFIPCRIPSASPQTQRKFSLQFHRNCPENKDSDKLSPVFTQSRPLPSSNIHRPKPSRPTPGNTSKQGDPSKNSMTLDLNSSSKCDDSFGCSSNSSNAVIPSDETVFTPVEEKCRLDVNTELNSSIEDLLEASMPSSDTTVTFKSEVAVLSPEKAENDDTYKDDVNHNQKCKEKMEAEEEEALAIAMAMSASQDALPIVPQLQVENGEDIIIIQQDTPETLPGHTKAKQPYREDTEWLKGQQIGLGAFSSCYQAQDVGTGTLMAVKQVTYVRNTSSEQEEVVEALREEIRMMSHLNHPNIIRMLGATCEKSNYNLFIEWMAGGSVAHLLSKYGAFKESVVINYTEQLLRGLSYLHENQIIHRDVKGANLLIDSTGQRLRIADFGAAARLASKGTGAGEFQGQLLGTIAFMAPEVLRGQQYGRSCDVWSVGCAIIEMACAKPPWNAEKHSNHLALIFKIASATTAPSIPSHLSPGLRDVALRCLELQPQDRPPSRELLKHPVFRTTW
As to B1, the “phosphorylation of GST-MKK4 (32P incorporation in kinase reaction, SDS-PAGE and imaging)” value is “The ability of extracts containing his-tagged hMEKK1 to phosphorylate GST-MKK4 was comparable to the activity of purified mouse MEKK1, and significantly above the background levels seen with control extracts”.

B2: purified mouse MEKK1 (protein)
chain: MVTAVPAVFSKLVTMLNASGSTHFTRMRRRLMAIADEVEIAEVIQLGVEDTVDGHQDSLQAVAPTSCLENSSLEHTVHREKTGKGLSATRLSASSEDISDRLAGVSVGLPSSTTTEQPKPAVQTKGRPHSQCLNSSPLSHAQLMFPAPSAPCSSAPSVPDISKHRPQAFVPCKIPSASPQTQRKFSLQFQRNCSEHRDSDQLSPVFTQSRPPPSSNIHRPKPSRPVPGSTSKLGDATKSSMTLDLGSASRCDDSFGGGGNSGNAVIPSDETVFTPVEDKCRLDVNTELNSSIEDLLEASMPSSDTTVTFKSEVAVLSPEKAENDDTYKDDVNHNQKCKEKMEAEEEEALAIAMAMSASQDALPIVPQLQVENGEDIIIIQQDTPETLPGHTKAKQPYREDAEWLKGQQIGLGAFSSCYQAQDVGTGTLMAVKQVTYVRNTSSEQEEVVEALREEIRMMGHLNHPNIIRMLGATCEKSNYNLFIEWMAGGSVAHLLSKYGAFKESVVINYTEQLLRGLSYLHENQIIHRDVKGANLLIDSTGQRLRIADFGAAARLASKGTGAGEFQGQLLGTIAFMAPEVLRGQQYGRSCDVWSVGCAIIEMACAKPPWNAEKHSNHLALIFKIASATTAPSIPSHLSPGLRDVAVRCLELQPQDRPPSRELLKHPVFRTTW
Consider B2, for which the “phosphorylation of GST-MKK4 (32P incorporation in kinase reaction, SDS-PAGE and imaging)” value is given as “The ability of extracts containing his-tagged hMEKK1 to phosphorylate GST-MKK4 was comparable to the activity of purified mouse MEKK1”.
